Assay results: the supplement of paper PMC10567573

B1: INTS3 (parent)
chain: FSDDEEDLNSKGKKREFRFHPIKE
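Also: lentivirally expressed fusions sorted by FACS into six bins by GFP to DsRed ratio, PSI derived from sequencing read proportions per bin multiplied by bin number.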

Variants of: B1
Assay: protein stability index of a GFP-peptide fusion (GPS, HEK-293T) (PSI 1-6); higher = more stable
Conditions: c terminus: a fixed tail appended
With FSDDEEDLNSKGKKEEFRFHPIKE [R15E] the protein stability index was 4.63.
For FSDDEEDLNSKGKKAEFRFHPIKE [R15A], the protein stability index was 3.8.
With FSDDEEDLNSKGKKSEFRFHPIKE [R15S] the protein stability index was 3.6.
In the case of FSDDEEDLNSKGKKHEFRFHPIKE [R15H], the protein stability index is reported as 2.26.
Work on FSDDEEDLNSKGKKTEFRFHPIKE [R15T] yielded a protein stability index of 3.38.
Work on FSDDEEDLNSKGKKYEFRFHPIKE [R15Y] yielded a protein stability index of 2.56.
For FSDDEEDLNSKGKKCEFRFHPIKE [R15C], the protein stability index was 3.31.
In the case of FSDDEEDLNSKGKKVEFRFHPIKE [R15V], the protein stability index is reported as 3.14.
FSDDEEDLNSKGKKIEFRFHPIKE [R15I] showed a protein stability index of 3.47.
In the case of FSDDEEDLNSKGKKDEFRFHPIKE [R15D], the protein stability index is reported as 3.94.
FSDDEEDLNSKGKKLEFRFHPIKE [R15L] gave a protein stability index of 2.53.
Work on FSDDEEDLNSKGKKFEFRFHPIKE [R15F] yielded a protein stability index of 2.81.
FSDDEEDLNSKGKKGEFRFHPIKE [R15G] gave a protein stability index of 3.2.
With FSDDEEDLNSKGKKPEFRFHPIKE [R15P] the protein stability index was 2.6.
Variant FSDDEEDLNSKGKKWEFRFHPIKE [R15W] has a protein stability index of 2.42.
FSDDEEDLNSKGKKQEFRFHPIKE [R15Q] gave a protein stability index of 3.62.
FSDDEEDLNSKGKKMEFRFHPIKE [R15M] gave a protein stability index of 2.56.
FSDDEEDLNSKGKKKEFRFHPIKE [R15K] gave a protein stability index of 3.89.
For FSDDEEDLNSKGKKNEFRFHPIKE [R15N], the protein stability index was 3.49.
Work on FSDDEEDLNSKGKKREFRMHPIKE [F19M] yielded a protein stability index of 4.86.
Variant FSDDEEDLNSKGKKREFRCHPIKE [F19C] has a protein stability index of 4.98.
For FSDDEEDLNSKGKKREFRTHPIKE [F19T], the protein stability index was 5.06.
Variant FSDDEEDLNSKGKKREFRWHPIKE [F19W] has a protein stability index of 3.72.
For FSDDEEDLNSKGKKREFRAHPIKE [F19A], the protein stability index was 5.07.
With FSDDEEDLNSKGKKREFRLHPIKE [F19L] the protein stability index was 4.67.
Variant FSDDEEDLNSKGKKREFRQHPIKE [F19Q] has a protein stability index of 5.14.
With FSDDEEDLNSKGKKREFRSHPIKE [F19S] the protein stability index was 5.6.
Work on FSDDEEDLNSKGKKREFRDHPIKE [F19D] yielded a protein stability index of 5.53.
In the case of FSDDEEDLNSKGKKREFRPHPIKE [F19P], the protein stability index is reported as 5.07.
In the case of FSDDEEDLNSKGKKREFRVHPIKE [F19V], the protein stability index is reported as 5.1.
FSDDEEDLNSKGKKREFRRHPIKE [F19R] showed a protein stability index of 5.29.
FSDDEEDLNSKGKKREFRNHPIKE [F19N] gave a protein stability index of 5.26.
With FSDDEEDLNSKGKKREFRIHPIKE [F19I] the protein stability index was 4.68.
FSDDEEDLNSKGKKREFRYHPIKE [F19Y] showed a protein stability index of 3.49.
Variant FSDDEEDLNSKGKKREFRGHPIKE [F19G] has a protein stability index of 4.98.
FSDDEEDLNSKGKKREFRHHPIKE [F19H] showed a protein stability index of 5.29.
Work on FSDDEEDLNSKGKKREFREHPIKE [F19E] yielded a protein stability index of 5.59.
In the case of FSDDEEDLNSKGKKREFRKHPIKE [F19K], the protein stability index is reported as 5.4.
FSDDEEDLNSKLKKREFRFHPIKE [G12L] gave a protein stability index of 2.29.
Work on FSDDEEDLNSKVKKREFRFHPIKE [G12V] yielded a protein stability index of 2.1.
FSDDEEDLNSKNKKREFRFHPIKE [G12N] gave a protein stability index of 2.83.
In the case of FSDDEEDLNSKHKKREFRFHPIKE [G12H], the protein stability index is reported as 2.58.
FSDDEEDLNSKEKKREFRFHPIKE [G12E] showed a protein stability index of 3.02.
With FSDDEEDLNSKCKKREFRFHPIKE [G12C] the protein stability index was 2.13.
Work on FSDDEEDLNSKTKKREFRFHPIKE [G12T] yielded a protein stability index of 2.44.
With FSDDEEDLNSKAKKREFRFHPIKE [G12A] the protein stability index was 2.67.
FSDDEEDLNSKSKKREFRFHPIKE [G12S] gave a protein stability index of 2.65.
Work on FSDDEEDLNSKYKKREFRFHPIKE [G12Y] yielded a protein stability index of 2.4.
With FSDDEEDLNSKWKKREFRFHPIKE [G12W] the protein stability index was 2.11.
For FSDDEEDLNSKFKKREFRFHPIKE [G12F], the protein stability index was 1.91.
FSDDEEDLNSKQKKREFRFHPIKE [G12Q] showed a protein stability index of 3.2.
Work on FSDDEEDLNSKDKKREFRFHPIKE [G12D] yielded a protein stability index of 2.92.
For FSDDEEDLNSKKKKREFRFHPIKE [G12K], the protein stability index was 1.98.
In the case of FSDDEEDLNSKMKKREFRFHPIKE [G12M], the protein stability index is reported as 2.58.
Work on FSDDEEDLNSKPKKREFRFHPIKE [G12P] yielded a protein stability index of 2.98.
FSDDEEDLNSKRKKREFRFHPIKE [G12R] gave a protein stability index of 2.14.
For FSDDEEDLNSKIKKREFRFHPIKE [G12I], the protein stability index was 2.14.
Work on FSDDEEDLNSKGKKREMRFHPIKE [F17M] yielded a protein stability index of 4.79.
FSDDEEDLNSKGKKRELRFHPIKE [F17L] gave a protein stability index of 4.76.
In the case of FSDDEEDLNSKGKKREWRFHPIKE [F17W], the protein stability index is reported as 2.01.
For FSDDEEDLNSKGKKREYRFHPIKE [F17Y], the protein stability index was 4.35.
Work on FSDDEEDLNSKGKKREARFHPIKE [F17A] yielded a protein stability index of 5.13.
With FSDDEEDLNSKGKKRECRFHPIKE [F17C] the protein stability index was 5.31.
Variant FSDDEEDLNSKGKKREKRFHPIKE [F17K] has a protein stability index of 5.12.
FSDDEEDLNSKGKKRESRFHPIKE [F17S] showed a protein stability index of 5.44.
FSDDEEDLNSKGKKREIRFHPIKE [F17I] gave a protein stability index of 4.9.
In the case of FSDDEEDLNSKGKKRENRFHPIKE [F17N], the protein stability index is reported as 5.01.
For FSDDEEDLNSKGKKREGRFHPIKE [F17G], the protein stability index was 5.18.
FSDDEEDLNSKGKKREHRFHPIKE [F17H] showed a protein stability index of 5.01.
For FSDDEEDLNSKGKKRERRFHPIKE [F17R], the protein stability index was 4.97.
In the case of FSDDEEDLNSKGKKREQRFHPIKE [F17Q], the protein stability index is reported as 5.18.
With FSDDEEDLNSKGKKREVRFHPIKE [F17V] the protein stability index was 4.85.
With FSDDEEDLNSKGKKREPRFHPIKE [F17P] the protein stability index was 5.06.
With FSDDEEDLNSKGKKREERFHPIKE [F17E] the protein stability index was 5.03.
In the case of FSDDEEDLNSKGKKREDRFHPIKE [F17D], the protein stability index is reported as 4.43.
Variant FSDDEEDLNSKGKKRETRFHPIKE [F17T] has a protein stability index of 5.04.
Work on FSDDEEDLNSKGKKREFRFAPIKE [H20A] yielded a protein stability index of 4.58.
In the case of FSDDEEDLNSKGKKREFRFEPIKE [H20E], the protein stability index is reported as 5.28.
FSDDEEDLNSKGKKREFRFCPIKE [H20C] showed a protein stability index of 4.31.
With FSDDEEDLNSKGKKREFRFTPIKE [H20T] the protein stability index was 4.59.
In the case of FSDDEEDLNSKGKKREFRFNPIKE [H20N], the protein stability index is reported as 4.69.
In the case of FSDDEEDLNSKGKKREFRFWPIKE [H20W], the protein stability index is reported as 4.31.
With FSDDEEDLNSKGKKREFRFGPIKE [H20G] the protein stability index was 4.34.
FSDDEEDLNSKGKKREFRFDPIKE [H20D] showed a protein stability index of 5.39.
In the case of FSDDEEDLNSKGKKREFRFYPIKE [H20Y], the protein stability index is reported as 4.51.
In the case of FSDDEEDLNSKGKKREFRFFPIKE [H20F], the protein stability index is reported as 3.94.
In the case of FSDDEEDLNSKGKKREFRFVPIKE [H20V], the protein stability index is reported as 3.92.
FSDDEEDLNSKGKKREFRFLPIKE [H20L] showed a protein stability index of 5.1.
With FSDDEEDLNSKGKKREFRFIPIKE [H20I] the protein stability index was 4.59.
Work on FSDDEEDLNSKGKKREFRFKPIKE [H20K] yielded a protein stability index of 5.13.
FSDDEEDLNSKGKKREFRFQPIKE [H20Q] gave a protein stability index of 4.44.
FSDDEEDLNSKGKKREFRFSPIKE [H20S] showed a protein stability index of 5.18.
FSDDEEDLNSKGKKREFRFPPIKE [H20P] gave a protein stability index of 4.86.
Variant FSDDEEDLNSKGKKREFRFMPIKE [H20M] has a protein stability index of 4.83.
